Common to all, as to assay: Kinetic constants of AMC substrate hydrolysis by hK2
What all share (format): biochemical, human
What all share (conditions): other: 50 mM Tris pH 7.5, 0.1 M NaCl, 0.2% BSA, 37° C., Lineweaver-Burk

Data set [1] relates to T1, Cc1cc(=O)oc2cc(NC(=O)[C@H](CCCNC(=N)N)NC(=O)[C@H](CCCNC(=N)N)NC(=O)[C@H](C)NC(=O)OCc3ccccc3)ccc12.
T1 construct: made in house
Here is the method:
(§1) The measurements were done with Fluoroscan II (Labsystems, Helsinki, Finland) using a 355 nm excitation filter and a 460 nm emission filter. The fluorescence of 7-amino-4-methylcoumarin (AMC) (Sigma, St. Louis, Mo., USA) was determined to be 700 FIU/nmol and this value was used in the calculations of the rate of product formation. Unless otherwise indicated all final analyses were performed in 200 μl of the buffer 50 mM Tris pH 7.5, 0.1 M NaCl, and 0.2% BSA at 37° C. using 1.6 pmol hK2. BSA was added to the reaction mixture in order to minimize adsorption of the enzyme to the walls of the microtiter wells. The amount of hK2 was quantified by a commercial PSA immunoassay (Prostatus, Wallac, Turku, Finland) with the Mabs H1 17 and H50 which recognize PSA and hK2 equally well (Lovgren et al., Biochem. Biophys. Res. Co., 213, 888-895 (1995)). Under the conditions described, 1.6 pmol of the hK2 preparation cleaved 50 pmol/min of the 100 μM substrate Pro-Phe-Arg-AMC (SEQ ID NO: 55). During the 20 minute measurement time the consumption of the substrates is <7% of their total amount and was not considered to affect the reaction rate. Initial analysis of the substrates were performed with 3.2 pmol hK2 at a substrate concentration of 250 μM. Km value for the substrates cleaved by hK2 at these conditions were determined using at least four substrate concentrations ranging from 0.2×Km to 5×Km. The Km and kcat values were calculated from Lineweaver-Burk plots.
(§2) Substrates ending in either arginine or lysine were tested. […] However, no hydrolysis of Arg-Gln-Arg-Arg-AMC (SEQ ID NO: 63) was detected. […] As with the semenogelins, hK2 also here cleaves substrates with Arg at position P1 and preferentially a large residue or another Arg at position P2. None of the substrates with lysine in the C-terminal position were cleaved.
(§3) The activity listed in Table 1 is hydrolytic activity of hK2 with 100 μM substrate in relation to the hydrolytic activity of hK2 with 100 μM of the tissue kallikrein substrate H-Pro-Phe-Arg-AMC (SEQ ID NO: 55). The entry “NR” means that no reaction was detected.

The test system of data set [2] is T2, Cc1cc(=O)oc2cc(NC(=O)[C@H](CCCNC(=N)N)NC(=O)[C@H](CC(C)C)NC(=O)[C@H](CC(C)C)NC(=O)OCc3ccccc3)ccc12.
T2 construct: made in house
The procedure:
as §1, §2, §3

For data set [3], the system named is T3, Cc1cc(=O)oc2cc(NC(=O)[C@H](CCCNC(=N)N)NC(=O)[C@@H]3CCCN3C(=O)[C@@H](NC(=O)OC(C)(C)C)C(C)C)ccc12.
T3 construct: made in house
The procedure: as §1, §2, §3

Data set [4] concerns T4, Cc1cc(=O)oc2cc(NC(=O)[C@H](CCCNC(=N)N)NC(=O)[C@H](Cc3ccccc3)NC(=O)[C@@H]3CCCN3)ccc12.
T4 construct: made in house
The procedure:
as §1, §2, §3

For recombinant hK2 (Homo sapiens), the Km in data set [1] came to 20 µM; in data set [2], 71 µM; in data set [3] it was 48 µM; in data set [4], 40 µM. The kcat in data set [1] was found to be 0.12 s⁻¹; in data set [2], 0.04 s⁻¹; in data set [3], 0.0267 s⁻¹; in data set [4], 0.917 s⁻¹. Moreover, the kcat/Km stood at 6000 M⁻¹ s⁻¹ in data set [1], 567 M⁻¹ s⁻¹ in data set [2], 567 M⁻¹ s⁻¹ in data set [3] and 22900 M⁻¹ s⁻¹ in data set [4].

The Km is the substrate concentration at which the rate is half of its maximum. The term kcat denotes the number of substrate molecules converted per active site and unit of time at saturation. One may read the kcat/Km as the second-order rate constant that governs catalysis at low substrate concentration.

(Values after patent US8450280B2, “Activation of peptide prodrugs by hK2” (GenbSpera, Inc., priority 1999, dated 2013).)
